In patent publication US20260226161A1:

Experiments:
[1] = target: NKG2A expressed on KHYG-1 cells (endogenous) (human) (UniProt P26715); test: flow cytometry on KHYG-1 cells (endogenous NKG2A), MFI against Log [Ab] M
[2] = target: Human NKG2A & CD94 with mouse IgG2a Fc tag (AcroBiosystems) (human) (UniProt P26715); test: SPR (Carterra), antibody on chip, soluble antigen
[3] = target: cynomolgus NKG2A/CD94 (soluble antigen of the equilibrium assay) (cynomolgus) (UniProt Q68VD2); test: SPR equilibrium response, Langmuir isotherm; antibody on chip, soluble antigen
[4] = target: NKG2A expressed on KHYG-1 cells (endogenous) (human) (UniProt P26715)
[5] = target: NKG2A expressed on KHYG-1 cells (endogenous) (human) (UniProt P26715); test: competition by flow cytometry on KHYG-1 cells: antibody varied, binding of HLA-E tetramer to NKG2A read as MFI

Sequence of NKG2A expressed on KHYG-1 cells (endogenous) (human) (P26715 whole entry, chain 1 of 2): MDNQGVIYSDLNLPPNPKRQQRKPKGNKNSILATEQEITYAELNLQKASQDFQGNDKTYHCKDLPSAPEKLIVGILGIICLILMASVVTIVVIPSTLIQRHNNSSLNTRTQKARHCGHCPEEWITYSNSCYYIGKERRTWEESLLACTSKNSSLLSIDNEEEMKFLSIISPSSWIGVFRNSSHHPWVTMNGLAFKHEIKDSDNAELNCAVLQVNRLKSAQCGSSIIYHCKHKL
Sequence of NKG2A expressed on KHYG-1 cells (endogenous) (human) (Q13241 whole entry, chain 2 of 2, further chain): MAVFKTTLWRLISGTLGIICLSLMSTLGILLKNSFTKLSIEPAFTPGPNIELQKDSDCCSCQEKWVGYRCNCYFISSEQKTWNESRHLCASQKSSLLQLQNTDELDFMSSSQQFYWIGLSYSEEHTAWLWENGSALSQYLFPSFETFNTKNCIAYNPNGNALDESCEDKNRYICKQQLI
Sequence of Human NKG2A & CD94 with mouse IgG2a Fc tag (AcroBiosystems) (human) (P26715 94-233 limits assumed, chain 1 of 2): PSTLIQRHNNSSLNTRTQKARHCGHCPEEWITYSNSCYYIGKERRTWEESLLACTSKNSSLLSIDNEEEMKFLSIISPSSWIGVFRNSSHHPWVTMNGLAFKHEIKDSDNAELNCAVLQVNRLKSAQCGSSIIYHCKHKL
Sequence of Human NKG2A & CD94 with mouse IgG2a Fc tag (AcroBiosystems) (human) (Q13241 32-179 limits assumed, chain 2 of 2, further chain): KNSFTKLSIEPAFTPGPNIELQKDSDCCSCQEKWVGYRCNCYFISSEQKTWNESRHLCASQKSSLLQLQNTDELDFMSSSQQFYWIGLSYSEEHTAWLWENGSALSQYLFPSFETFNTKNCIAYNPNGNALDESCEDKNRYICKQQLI
Sequence of cynomolgus NKG2A/CD94 (soluble antigen of the equilibrium assay) (cynomolgus) (NKG2A, as listed by the source limits assumed, chain 1 of 2): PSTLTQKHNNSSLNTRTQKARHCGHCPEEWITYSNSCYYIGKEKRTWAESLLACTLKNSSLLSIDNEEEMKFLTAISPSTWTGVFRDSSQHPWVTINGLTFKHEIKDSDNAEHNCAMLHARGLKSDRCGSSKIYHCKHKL
Sequence of cynomolgus NKG2A/CD94 (soluble antigen of the equilibrium assay) (cynomolgus) (CD94, as listed by the source limits assumed, chain 2 of 2): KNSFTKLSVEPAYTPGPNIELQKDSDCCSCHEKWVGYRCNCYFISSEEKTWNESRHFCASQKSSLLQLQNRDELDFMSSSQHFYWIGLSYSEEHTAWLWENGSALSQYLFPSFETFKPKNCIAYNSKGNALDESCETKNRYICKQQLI

EC50 (read off the curve) [1]: 0.04 nM
Kd [2]: 0.06 nM
koff [2]: 3e-05 s⁻¹
kon [2]: 510000 M⁻¹ s⁻¹
Kd [3]: 11 nM
% double-positive events (Q2: PD-L1+ LCL721.221-hPD-L1 cells coupled to NKG2A+ KHYG-1 cells), antibody at 2 nM; monospecific control, no bridging [cont.] [4]: 0.59%
IC50 (read off the curve) [5]: 0.3 nM
B1: Benchmark anti-NKG2A antibody (IgG4) (antibody, INN chains, looked up, V domains shown)
VH: QVQLVQSGAEVKKPGASVKVSCKASGYTFTSYWMNWVRQAPGQGLEWMGRIDPYDSETHYAQKLQGRVTMTTDTSTSTAYMELRSLRSDDTAVYYCARGGYDFDVGTLYWFFDVWGQGTTVTVSS
VL: DIQMTQSPSSLSASVGDRVTITCRASENIYSYLAWYQQKPGKAPKLLIYNAKTLAEGVPSRFSGSGSGTDFTLTISSLQPEDFATYYCQHHYGTPRTFGGGTKVEIK
modifications: IgG4
